# B1: Serine/threonine-protein kinase PINK1, mitochondrial (Homo sapiens), Q9BXM7-1 (parent)
# chain: MAVRQALGRGLQLGRALLLRFTGKPGRAYGLGRPGPAAGCVRGERPGWAAGPGAEPRRVGLGLPNRLRFFRQSVAGLAARLQRQFVVRAWGCAGPCGRAVFLAFGLGLGLIEEKQAESRRAVSACQEIQAIFTQKSKPGPDPLDTRRLQGFRLEEYLIGQSIGKGCSAAVYEATMPTLPQNLEVTKSTGLLPGRGPGTSAPGEGQERAPGAPAFPLAIKMMWNISAGSSSEAILNTMSQELVPASRVALAGEYGAVTYRKSKRGPKQLAPHPNIIRVLRAFTSSVPLLPGALVDYPDVLPSRLHPEGLGHGRTLFLVMKNYPCTLRQYLCVNTPSPRLAAMMLLQLLEGVDHLVQQGIAHRDLKSDNILVELDPDGCPWLVIADFGCCLADESIGLQLPFSSWYVDRGGNGCLMAPEVSTARPGPRAVIDYSKADAWAVGAIAYEIFGLVNPFYGQGKAHLESRSYQEAQLPALPESVPPDVRQLVRALLQREASKRPSARVAANVLHLSLWGEHILALKNLKLDKMVGWLLQQSAATLLANRLTEKCCVETKMKMLFLANLECETLCQAALLLCSWRAAL
# partner: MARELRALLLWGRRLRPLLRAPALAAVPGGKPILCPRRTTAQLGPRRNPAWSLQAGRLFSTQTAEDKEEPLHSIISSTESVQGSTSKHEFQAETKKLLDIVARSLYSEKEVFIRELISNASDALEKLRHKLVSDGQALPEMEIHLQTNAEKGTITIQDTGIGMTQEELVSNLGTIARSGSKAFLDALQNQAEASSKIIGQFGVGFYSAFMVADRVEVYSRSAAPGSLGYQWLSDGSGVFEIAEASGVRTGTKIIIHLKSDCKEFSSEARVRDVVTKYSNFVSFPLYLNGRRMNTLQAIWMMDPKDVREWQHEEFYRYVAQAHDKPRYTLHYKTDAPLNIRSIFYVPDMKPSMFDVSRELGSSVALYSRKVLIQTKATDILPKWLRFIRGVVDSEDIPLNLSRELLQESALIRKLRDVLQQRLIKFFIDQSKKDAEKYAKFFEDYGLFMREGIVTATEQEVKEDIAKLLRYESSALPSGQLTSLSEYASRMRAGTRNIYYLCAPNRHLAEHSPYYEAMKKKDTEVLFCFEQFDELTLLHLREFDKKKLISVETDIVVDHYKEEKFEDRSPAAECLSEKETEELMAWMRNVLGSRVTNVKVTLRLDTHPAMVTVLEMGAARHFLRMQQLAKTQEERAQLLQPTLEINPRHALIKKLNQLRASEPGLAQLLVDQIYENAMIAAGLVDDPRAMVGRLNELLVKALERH
# Variants of: B1
# Conditions: with trap1_human TRAP1, Q12931
row,Variant,effect of a mutation on the interaction
1,D362A,decreasing interaction
2,L347P,decreasing interaction
3,D384A,decreasing interaction
4,G309D,decreasing interaction
5,K219A;D362A;D384A,decreasing interaction

# — IntAct's records for PubMed 17579517
